Experimental data: US20100222256A1 (BIOKINE THERAPEUTICS, published 2010)
Bridges are numbered along the chain shown (N, C = ends). Where no end group is shown, it is not given here. [ ]: non-standard residue; d: D form. Cit = NC(=O)NCCC[C@H](N)C(=O)O; Nal = naphthylalanine

B1: TC14005 (peptide)
peptide: RRXCYRKXPYRXCR
modifications: not fully specified; Nal at 3; D-citrulline at 8; L-citrulline at 12; C-terminal OH; Cys4-Cys13 disulfide (cyclised by air oxidation)
B2: TC14011 (peptide)
peptide: RRXCYXKXPYRXCR
modifications: Nal at 3; Cit at 6; D-Cit at 8; Cit at 12; C-terminal OH; Cys4-Cys13 disulfide (cyclised by air oxidation)
B3: TC14012 (peptide)
peptide: RRXCYXKXPYRXCR
modifications: Nal at 3; L-citrulline at 6; D-citrulline at 8; L-citrulline at 12; C-terminal amide (NH2); Cys4-Cys13 disulfide (cyclised by air oxidation)
B4: TC14018 (peptide)
peptide: XRXCYRKXPYRXCR
modifications: Cit at 1; Nal at 3; D-Cit at 8; Cit at 12; C-terminal amide (NH2); Cys4-Cys13 disulfide (cyclised by air oxidation)
B5: TC14020 (peptide)
peptide: RRXCYRKXPYXXCR
modifications: Nal at 3; D-Cit at 8; Cit at 11 and 12; C-terminal OH as printed; Cys4-Cys13 disulfide (cyclised by air oxidation)
B6: TN14003 (peptide)
peptide: RR[Nal]CY[Cit]K[dK]PYR[Cit]CR-NH2
modifications: disulfide 4-13
B7: TN14005 (peptide)
peptide: RRXCYRKXPYRXCR
modifications: Nal at 3; D-Cit at 8; Cit at 12; C-terminal amide (NH2); Cys4-Cys13 disulfide (cyclised by air oxidation)
B8: TC14003 (peptide)
peptide: RR[Nal]CY[Cit]K[dK]PYR[Cit]CR-OH
modifications: disulfide 4-13

Target: CXCR4 ligand
Assay: cell-based or functional assay

Binder	EC50 (nM): anti-HIV activity, concentration where MT-4 cell death by HIV-1 (IIIB) infection is inhibited by 50% (MTT method) [nM]
B1	4
B2	0.5
B3	0.4
B4	1.2
B5	2.7
B6	0.6
B7	4.6
B8	2.8
